Drawing on the supplement of paper PMC9233669, this text covers self-aminoacylation for 52 sequences.

Fewer inactive variants are shown than the library holds.

The test system of series [1] is biotinyl-Phe-oxazolone. Put plainly: self-aminoacylation, catalytic enhancement (BFO) (fold over background); higher = more active; k-Seq, kA / k0A0; sequences stand for … in GGGAAUGGAUCCACAUCUACGAAUUC…UUCACUGCAGACUUGACGAAGCUG
Summed up:
(§1)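 Working in 50 μL HEPES/NaCl/KCl/MgCl2/CaCl2 buffer with 5% acetonitrile at pH 6.9–7.0, mutagenized RNA pools (0.43 μM; 21-nt variable region) were reacted with 2–1250 μM of each biotinyl-aminoacyl-oxazolone for 90 minutes at room temperature. Streptavidin capture followed, with quantification by triplicate qPCR and Illumina sequencing. Catalytic enhancement is reported as median kA over the uncatalyzed rate, the low-activity peak of a bimodal Gaussian fit to the data.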

The subject of series [2] is biotinyl-Leu-oxazolone. The experiment in a line: self-aminoacylation, catalytic enhancement (BLO) (fold over background); higher = more active; k-Seq, kA / k0A0; sequences stand for … in GGGAAUGGAUCCACAUCUACGAAUUC…UUCACUGCAGACUUGACGAAGCUG
Put shortly: as §1

Series [3] relates to biotinyl-Trp-oxazolone. Put plainly: self-aminoacylation, catalytic enhancement (BWO) (fold over background); higher = more active; k-Seq, kA / k0A0; sequences stand for … in GGGAAUGGAUCCACAUCUACGAAUUC…UUCACUGCAGACUUGACGAAGCUG
Summed up: as §1

As to “AAGUUUACUAAAAGUCGCAAG [Fam3.1 aminoacylation ribozyme variant]”, the self-aminoacylation stood at 2.76 in series [1] and 2.08 in series [2].

For the sequence “AUUACCCUGGUCAUCCAGUGC [Fam2.1 aminoacylation ribozyme variant]”, the values for the self-aminoacylation in series [1] and in series [2] were 5.75 and 2.19, respectively.

With “AUUAUCCUGGUCAUCGAGGGA [Fam2.1 aminoacylation ribozyme variant]”, the self-aminoacylation in series [2] came to 2.02.

Turning to “AUUCACCUAGGUCAUCUCGUG [Fam2.2 aminoacylation ribozyme variant]”, the self-aminoacylation in series [1] worked out at 5.77; in series [2], 2.29.

For the sequence “CAACUUCAAACAAUCGCUCUG [Fam1A.1 aminoacylation ribozyme variant]”, the self-aminoacylation in series [1] was 3.06; in series [3], 2.41.

Turning to “CAACUUCAAACAAUCGGUCUA [Fam1A.1 aminoacylation ribozyme variant]”, the values for the self-aminoacylation in series [1] and in series [3] were 26.4 and 13.9, respectively.

Regarding “CAGUUUGCUAAUAGUCGUAAG [Fam3.1 aminoacylation ribozyme variant]”, the self-aminoacylation turned out to be 5.91 in series [1] and 2.28 in series [3].

In the case of “CCAAACUUCAAGCAAUCAGUC [Fam1B.1 aminoacylation ribozyme variant]”, the self-aminoacylation came out at 9.55 in series [1] and 3.03 in series [3].

For “CCACACGUCAAGCAAUCGGCC [Fam1B.1 aminoacylation ribozyme variant]”, the self-aminoacylation in series [1] stood at 3.91; in series [3], 2.

Consider “CCACACUUCAAACGAUCGGUC [Fam1B.1 aminoacylation ribozyme variant]”, for which the self-aminoacylation in series [1] worked out at 3.66; in series [3], 4.08.

With “CCACACUUCAAGAAAUCGGUC [Fam1B.1 aminoacylation ribozyme variant]”, the self-aminoacylation worked out at 10.8 in series [1] and 6.66 in series [3].

As to “CCACACUUCAAGCAAUCAGUC [Fam1B.1 aminoacylation ribozyme variant]”, the self-aminoacylation in series [1] stood at 21.5; in series [3] it was 6.45.

Consider “CCACACUUCAAGUAAUCGGCC [Fam1B.1 aminoacylation ribozyme variant]”, for which the figures for the self-aminoacylation in series [1] and in series [3] were 3.03 and 4.17, respectively.

For “CCACACUUCAAUAAAUCGGUC [Fam1B.1 aminoacylation ribozyme variant]”, the self-aminoacylation in series [1] was found to be 11.7; in series [3], 6.22.

Take “CCACAUUUCAACCAAUCGGUC [Fam1B.1 aminoacylation ribozyme variant]”: the self-aminoacylation in series [1] worked out at 7.78; in series [3], 5.58.

As for “CCACUCUUCAAUCAAUCGGUC [Fam1B.1 aminoacylation ribozyme variant]”, the values for the self-aminoacylation in series [1] and in series [3] were 33.5 and 20.3, respectively.

As to “CCACUUCAAACAAUCGCUCUG [Fam1A.1 aminoacylation ribozyme variant]”, the self-aminoacylation in series [1] turned out to be 3.32; in series [3], 2.69.

“CCCCACUUCAUGCAAUCGGUC [Fam1B.1 aminoacylation ribozyme variant]”: the self-aminoacylation in series [1] stood at 2.57; in series [3], 2.78.

As to “CGACACUUCAAGCAAUCGGUC [Fam1B.1 aminoacylation ribozyme variant]”, the figures for the self-aminoacylation in series [1] and in series [3] were 13.4 and 7.38, respectively.

As to “CGACUUCAAAAAAUCGGUCUG [Fam1A.1 aminoacylation ribozyme variant]”, the self-aminoacylation in series [1] is 15.3; in series [3], 14.

As to “CUACCCUUCAAGCAAUCGGUC [Fam1B.1 aminoacylation ribozyme variant]”, the figures for the self-aminoacylation in series [1] and in series [3] were 8.35 and 5.52, respectively.

Regarding “CUACCUCAAACAAUCGGUCUG [Fam1A.1 aminoacylation ribozyme variant]”, the self-aminoacylation in series [1] was determined as 3.14; in series [3], 2.19.

In the case of “CUACGUGAAACAAUCGGUCUG [Fam1A.1 aminoacylation ribozyme variant]”, the figures for the self-aminoacylation in series [1] and in series [3] were 5.84 and 2.03, respectively.

For “CUACUUCAAAAAAUCGGUCGG [Fam1A.1 aminoacylation ribozyme variant]”, the results for the self-aminoacylation in series [1] and in series [3] were 4.54 and 5.6, respectively.

As for “CUACUUCAAAAAAUCGGUCUC [Fam1A.1 aminoacylation ribozyme variant]”, the self-aminoacylation worked out at 8.87 in series [1] and 5.93 in series [3].

Consider “CUACUUCAAACAAUCAGACUG [Fam1A.1 aminoacylation ribozyme variant]”, for which the self-aminoacylation in series [1] came to 8.24; in series [3] it was 2.98.

For “CUACUUCAAACAAUCGCUGUG [Fam1A.1 aminoacylation ribozyme variant]”, the self-aminoacylation in series [2] stood at 2.54.

For the sequence “CUACUUCAAACAAUCGGAAUG [Fam1A.1 aminoacylation ribozyme variant]”, the self-aminoacylation is 7.74 in series [1] and 4.46 in series [3].

In the case of “CUACUUCAAAGAAUCGGUCUC [Fam1A.1 aminoacylation ribozyme variant]”, the self-aminoacylation in series [1] came to 4.32; in series [3], 3.26.

With “CUACUUCAAAUAAUCGGUCUU [Fam1A.1 aminoacylation ribozyme variant]”, the self-aminoacylation turned out to be 9.54 in series [1] and 5.86 in series [3].

Regarding “CUACUUCAACCAAUCGGUGUG [Fam1A.1 aminoacylation ribozyme variant]”, the self-aminoacylation came to 4.96 in series [1] and 4.66 in series [3].

Take “CUACUUCAAGAAAUCGGUCUG [Fam1A.1 aminoacylation ribozyme variant]”: the self-aminoacylation is 4.36 in series [1] and 3.05 in series [3].

“CUACUUCAAGCAAUCGGUCUG [Fam1A.1 aminoacylation ribozyme variant]”: the self-aminoacylation in series [1] came out at 13.6; in series [3] it was 7.74.

As to “CUACUUCAAGUAAUCGGUCUG [Fam1A.1 aminoacylation ribozyme variant]”, the values for the self-aminoacylation in series [1] and in series [3] were 9.14 and 6.74, respectively.

Take “CUACUUCAGACAAUCGGCCUG [Fam1A.1 aminoacylation ribozyme variant]”: the self-aminoacylation in series [1] worked out at 3.82; in series [3], 2.23.

Take “CUCCUUCAAACAAUCGGACUG [Fam1A.1 aminoacylation ribozyme variant]”: the self-aminoacylation was determined as 12.9 in series [1] and 8.83 in series [3].

“CUCCUUCAAACAAUCGGUCAG [Fam1A.1 aminoacylation ribozyme variant]”: the self-aminoacylation was determined as 14 in series [1] and 7.87 in series [3].

On to “CUCCUUCAAACAAUCGGUCCG [Fam1A.1 aminoacylation ribozyme variant]”, for which the self-aminoacylation in series [1] was found to be 6.9; in series [3], 6.67.

“CUGCCUCAAACAAUCGGUCUG [Fam1A.1 aminoacylation ribozyme variant]”: the self-aminoacylation in series [1] turned out to be 34.5; in series [3] it was 20.9.

In the case of “CUGCUUCAAACAAUCGAUCUG [Fam1A.1 aminoacylation ribozyme variant]”, the self-aminoacylation in series [1] is 7.44; in series [3], 2.77.

Regarding “CUUCACCUAGGUCAUCGGGUC [Fam2.2 aminoacylation ribozyme variant]”, the self-aminoacylation in series [1] came to 3.47; in series [3], 2.29.

Turning to “CUUCUUCAAACAAUCGGUGUG [Fam1A.1 aminoacylation ribozyme variant]”, the self-aminoacylation in series [1] came to 4.48; in series [3] it was 2.46.

“CUUCUUCAAAUAAUCGGUCUG [Fam1A.1 aminoacylation ribozyme variant]”: the self-aminoacylation is 10.7 in series [1] and 7.57 in series [3].

With “CUUCUUCAACCAAUCGGUCUG [Fam1A.1 aminoacylation ribozyme variant]”, the self-aminoacylation in series [1] was determined as 9.05; in series [3] it was 6.07.

With “GAGUUUGCUAAUAGUCGAAAG [Fam3.1 aminoacylation ribozyme variant]”, the self-aminoacylation in series [1] stood at 13.3; in series [3], 5.05.

Turning to “GUACUUCAAACAAUCGGACUG [Fam1A.1 aminoacylation ribozyme variant]”, the self-aminoacylation in series [1] amounted to 5.92; in series [3], 5.26.

Regarding “GUACUUCAAAUAAUCGGUCUG [Fam1A.1 aminoacylation ribozyme variant]”, the self-aminoacylation was found to be 10.4 in series [1] and 10.7 in series [3].

Regarding “UAAUUUGCUAAUAGUCGCAAG [Fam3.1 aminoacylation ribozyme variant]”, the self-aminoacylation is 2.21 in series [1] and 2.01 in series [3].

“UAGUUUGCUAAUAGUCGCAAG [Fam3.1 aminoacylation ribozyme variant]”: the results for the self-aminoacylation in series [1] and in series [3] were 9.38 and 3.18, respectively.

In the case of “UCACCCUUCAAGCAAUCGGUC [Fam1B.1 aminoacylation ribozyme variant]”, the self-aminoacylation in series [1] worked out at 10.5; in series [3] it was 6.03.

Consider “UCACUCUUCAAGCAAUCGGUC [Fam1B.1 aminoacylation ribozyme variant]”, for which the self-aminoacylation was 27 in series [1] and 12.7 in series [3].

In the case of “UUAGUUCAAACAAUCGGUCUG [Fam1A.1 aminoacylation ribozyme variant]”, the results for the self-aminoacylation in series [1] and in series [3] were 4.01 and 2.94, respectively.
